Paper PMC8248388

How the values were obtained:
FcγRIIIa F176 [1] = target: FcγRIIIa F176 (UniProt P08637); test: SPR; Biacore T200, 25°C, HBS-EP+; His-tagged FcγR captured by anti-His antibody on a CM5 chip, rituximab injected; single-cycle kinetics, five concentrations, 600 s dissociation; 1:1 binding model, KD from kd/ka
FcγRI [2] = target: FcγRI (UniProt P12314); test: as above
FcγRIIb [3] = target: FcγRIIb (UniProt P31994); test: SPR; Biacore T200, 25°C, HBS-EP+; anti-His antibody on a CM5 chip captures His-tagged FcγRIIb (404 RU); rituximab 375-6000 nM injected; steady-state model, report points 15 s after injection start
UniProt P31994, sequence (P31994 43-217): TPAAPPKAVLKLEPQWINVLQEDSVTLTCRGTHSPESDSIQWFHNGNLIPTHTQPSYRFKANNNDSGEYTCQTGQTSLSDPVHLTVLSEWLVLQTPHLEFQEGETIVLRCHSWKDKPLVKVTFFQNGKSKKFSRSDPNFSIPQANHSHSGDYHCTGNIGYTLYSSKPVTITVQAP

FcγRIIIa V176 [4] = target: FcγRIIIa V176 (UniProt P08637)
FcγRIIIa F176 [5] = target: FcγRIIIa F176 (UniProt P08637); test: SPR; Biacore T200, 25°C, HBS-EP+; anti-His antibody amine-coupled on a CM5 chip captures the His-tagged FcγR; rituximab injected at five increasing concentrations (150 s, 30 µl/min), single-cycle kinetics, dissociation 600 s; 1:1 binding model, KD from kd/ka
FcγRIIIa V176 [6] = target: FcγRIIIa V176 (UniProt P08637); test: as above
FcγRIIb [7] = target: FcγRIIb (UniProt P31994); test: SPR; Biacore T200, 25°C, HBS-EP+; His-tagged FcγRIIb captured by anti-His antibody on a CM5 chip (404 RU), rituximab injected at 375-6000 nM; steady-state model, report points 15 s after injection start
FcγRI [8] = target: FcγRI (UniProt P12314); test: SPR; Biacore T200, 25°C, HBS-EP+; anti-His antibody amine-coupled on a CM5 chip captures the His-tagged FcγR; rituximab injected at five increasing concentrations (150 s, 30 µl/min), single-cycle kinetics, dissociation 600 s; 1:1 binding model, KD from kd/ka

UniProt P12314, sequence (P12314 16-292): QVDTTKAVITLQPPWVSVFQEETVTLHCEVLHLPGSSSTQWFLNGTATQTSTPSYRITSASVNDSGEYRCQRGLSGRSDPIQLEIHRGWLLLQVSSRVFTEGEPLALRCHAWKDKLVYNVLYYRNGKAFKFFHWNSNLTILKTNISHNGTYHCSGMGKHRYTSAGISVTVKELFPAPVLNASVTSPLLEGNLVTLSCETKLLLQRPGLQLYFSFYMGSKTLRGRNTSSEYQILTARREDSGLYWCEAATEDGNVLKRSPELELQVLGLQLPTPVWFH

Kd (FcγRIIIa F176 [1]) [nM] | Kd (FcγRI [2]) [nM] | Kd (FcγRIIb [3]) [nM] | EC50 of the ADCC Reporter Bioassay (Promega G7015); Day 7 samples from 200, 400 and 800 µM ThioFuc (38, 34, 37 ng/mL); FcγRIIIa variant on the effector cells not stated (FcγRIIIa V176 [4]) [µg/mL] | Kd (FcγRIIIa F176 [5]) [nM] | Kd (FcγRIIIa V176 [6]) [nM] | Kd (FcγRIIb [7]) [nM] | EC50 of the ADCC Reporter Bioassay (Promega G7015): Raji target cells, engineered Jurkat effector cells, luciferase; FcγRIIIa variant on the effector cells not stated (FcγRIIIa V176 [4]) [µg/mL] | Kd (FcγRI [8]) [nM] | Substance
72 | 11.3 | 908 | 0.038 | 70 | 13 | 893 | – | – | modified rituximab (46% afucosylation and 48% thiofucosylation) (antibody)
– | 14 | – | – | – | – | – | 0.087 | 12 | rituximab (8.5% afucosylation) (antibody)
